Data set [1] concerns the target T1, L30 (ribosomal protein L30) wild-type (rat, UniProt P62890 1-115). Nature of the data set: EMSA; 5 mM Mg2+; 30 mM Tris-HCl pH 8.0, 75 mM KCl, 5 mM MgCl2, 1 mM DTT, 0.04 ug/uL BSA, 10% glycerol, 50 ng/uL yeast tRNA, 30 C 15 min; EMSA gels 0.5X TBE at 4 C; RNase digesti. (Mobility shift assays separate free from complexed probe on a gel.)
For data set [2], the target named is T1, L30 (ribosomal protein L30) wild-type. Nature of the data set: UV cross-linking; 30 mM Tris-HCl pH 8.0, 75 mM KCl, 5 mM MgCl2, 1 mM DTT, 0.04 ug/uL BSA, 10% glycerol, 50 ng/uL yeast tRNA, 30 C 15 min; EMSA gels 0.5X TBE at 4 C; RNase digesti.

The text below walks through data of article PMC3706390.

The Kd is the constant that tells how readily two partners part at equilibrium. High values mean lower affinity, low ones higher affinity.

Regarding GGGACCGGAGUGUCGCAAGACGCAGAGAUGGUCC (structured_RNA) [L30 RNA (stem-loop of L30 pre-mRNA)], the Kd in data set [1] worked out at 170 nM.

B1: PHGPx SECIS wild-type (UV cross-linking) (structured_RNA)
RNA: CUGCCCUGUGACCCCUGGAGCCUUCCACCCCGGCACUCAUGACGGUCUGCCUGAAAACCAGCCCGCUGGUGGGGCAGUCCCGAGGACCUGGCGUGCAUCCCCGCCGGAGGAAGGUCCAGACGCUGUGGCC
Consider B1, for which, in data set [2], the binding result is “binds”.

B2: PHGPx SECIS U40C (structured_RNA)
RNA: CUGCCCUGUGACCCCUGGAGCCUUCCACCCCGGCACUCACGACGGUCUGCCUGAAAACCAGCCCGCUGGUGGGGCAGUCCCGAGGACCUGGCGUGCAUCCCCGCCGGAGGAAGGUCCAGACGCUGUGGCC
With B2, the binding result in data set [2] is on record as “no binding”.
